According to paper PMC6795518:

Key:
[1] = target: TcdB2-TccC3 from Photorhabdus luminescens (Pl-TcdB2-TccC3) (Photorhabdus luminescens) (UniProt Q8GF99); test: BLI
[2] = target: XptA1 from Xenorhabdus nematophila (Xn-XptA1) (Xenorhabdus nematophila); test: cryo-EM structure

Substance | Kd [1] [nM] | stoichiometry N [2]
TcdA1 from Photorhabdus luminescens (Pl-TcdA1), Q9RN43 1-2516 | 0.63 | 
TcdA4 from Morganella morganii (Mm-TcdA4) (natural protein) | 11.3 | 
XptA1 from Xenorhabdus nematophila (Xn-XptA1) (natural protein) | 1.99 | 5
